Target: T1, p38 MAP kinase (Homo sapiens, UniProt Q16539)
T1 construct: a PCR fragment containing the coding region of the p38 MAP kinase cDNA; GST (N); made in house; host or cells: bacteria
Experiment: Substrate phosphorylation by bacterially-expressed p38 MAP kinase, PhosphorImager quantitation
Type: biochemical
Details: 30 minutes reaction; ATF2 = 1.0
Description: Substrate phosphorylation by p38 MAP kinase was examined by incubation of bacterially-expressed p38 MAP kinase with IKB, cMyc, EGF-R, cytoplasmic phospholipase A2 (cPLA2), c-Jun, and mutated ATF2 (Thr^69,71) and ATP [γ-^32P] (Raingeaud et al. (1995) J. Biol. Chem 270:7420, herein specifically incorporated by reference). GST-IKB was provided by Dr D. Baltimore (Massachusetts Institute of Technology). GST-cMyc (Alvarez et al. (1991) J. Biol. Chem. 266:15277), GST-EGF-R (residues 647-688) (Koland et al. (1990) Biochem. Biophys. Res. Commun. 166:90), and GST-c-Jun (Dérijard et al. (1994) supra) have been described. The phosphorylation reaction was terminated after 30 minutes by addition of Laemmli sample buffer. The phosphorylated proteins were resolved by SDS-PAGE and detected by autoradiography. The rate phosphorylation of the substrate proteins was quantitated by PhosphorImager (Molecular Dynamics Inc.) analysis. The relative phosphorylation of ATF2, MBP, EGF-R, and IKB was 1.0, 0.23, 0.04, and 0.001, respectively.

T1 sequence (Q16539 whole entry, the tested form may be a part): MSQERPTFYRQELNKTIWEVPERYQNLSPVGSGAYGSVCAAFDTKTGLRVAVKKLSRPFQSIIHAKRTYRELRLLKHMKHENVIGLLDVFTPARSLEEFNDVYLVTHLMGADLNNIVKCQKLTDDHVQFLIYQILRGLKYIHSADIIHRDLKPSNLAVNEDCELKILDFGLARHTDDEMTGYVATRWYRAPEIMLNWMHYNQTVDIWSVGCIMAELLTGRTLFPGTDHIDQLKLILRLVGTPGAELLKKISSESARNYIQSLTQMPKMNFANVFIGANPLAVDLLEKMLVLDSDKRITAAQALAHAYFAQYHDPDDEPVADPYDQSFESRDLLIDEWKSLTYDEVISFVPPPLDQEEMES

B1: ATF2: Activating Transcription Factor-2, substrate protein of p38 (protein)
chain: MKFKLHVNSARQYKDLWNMSDDKPFLCTAPGCGQRFTNEDHLAVHKHKHEMTLKFGPARNDSVIVADQTPTPTRFLKNCEEVGLFNELASPFENEFKKASEDDIKKMPL
With B1 the “relative phosphorylation of substrate protein by p38 MAP kinase” value was 1.0.
